Measured values as given in the supplement of paper PMC10567573.

B1: TRIM9 (parent)
chain: CVQCKMPVCYQCLEEGKHSSHEVK
B2: MYL5 (parent)
chain: FQFASIDVAGNLDYKALSYVITHG

Variants of: B1
Assay: protein stability index of a GFP-peptide fusion (GPS, HEK-293T) (PSI 1-6); higher = more stable
Conditions: c terminus: a fixed tail appended
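Also: lentivirally expressed fusions sorted by FACS into six bins by GFP to DsRed ratio, PSI derived from sequencing read proportions per bin multiplied by bin number.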

Row | Variant | protein stability index
1 | H18R | 3.82
2 | H18Y | 3.55
3 | H18Q | 3.47
4 | H18V | 3
5 | H18W | 3.04
6 | H18S | 4.42
7 | H18E | 3.56
8 | H18G | 3.63
9 | H18T | 4.11
10 | H18M | 3.93
11 | H18D | 4.46
12 | H18P | 3.28
13 | H18A | 4.04
14 | H18I | 3.41
15 | H18N | 3.94
16 | H18L | 3.55
17 | H18F | 3.78
18 | H18K | 3.7
19 | H18C | 3.79
20 | K17R | 2.96
21 | K17G | 4.38
22 | K17L | 3.86
23 | K17N | 3.65
24 | K17M | 3.3
25 | K17E | 3.89

Row | Variant | protein stability index
26 | K17I | 3.61
27 | K17Q | 4.5
28 | K17V | 3.81
29 | K17Y | 3.54
30 | K17F | 3.1
31 | K17H | 4.47
32 | K17S | 3.42
33 | K17D | 2.88
34 | K17P | 3.75
35 | K24Q | 3.96
36 | K24F | 2.85
37 | K24H | 3.92
38 | K24S | 3.71
39 | K24I | 2.95
40 | K24L | 3.8
41 | K24D | 4.73
42 | K24G | 3.19
43 | K24N | 3.89
44 | K24M | 3.68
45 | K24W | 2.88
46 | K24C | 4.97
47 | K24E | 4.59
48 | K24R | 3.46
49 | K24Y | 3.41
50 | K24T | 3.7

Row | Variant | protein stability index
51 | K24A | 4.28
52 | K24V | 3.8
53 | K24P | 3.62
54 | H21R | 3.36
55 | H21C | 4.1
56 | H21N | 3.75
57 | H21L | 3.87
58 | H21F | 2.88
59 | H21G | 4.16
60 | H21A | 3.15
61 | H21D | 3.88
62 | H21T | 4.47
63 | H21E | 4.57
64 | H21S | 3.54
65 | H21K | 3.76
66 | H21W | 2.96
67 | H21Q | 4.16
68 | H21V | 4.05
69 | H21P | 4.08
70 | H21Y | 3.14
71 | H21M | 3.7
72 | H21I | 3.66
73 | V23Y | 3.46
74 | V23A | 4.37
75 | V23G | 3.84

Row | Variant | protein stability index
76 | V23R | 3.24
77 | V23F | 3.65
78 | V23E | 4.28
79 | V23M | 4
80 | V23C | 4.65
81 | V23W | 3.38
82 | V23I | 3.7
83 | V23L | 3.16
84 | V23P | 4.24
85 | V23K | 3.68
86 | V23S | 3.37
87 | V23T | 3.84
88 | V23H | 3.32
89 | V23D | 4.44
90 | V23N | 3.98
91 | V23Q | 3.85
92 | E22S | 3.68
93 | E22I | 3.8
94 | E22G | 3.32
95 | E22K | 4.31
96 | E22Q | 2.73
97 | E22H | 3.79
98 | E22P | 3.33
99 | E22W | 3.11
100 | E22V | 4.17

Row | Variant | protein stability index
101 | E22R | 3.12
102 | E22T | 4
103 | E22M | 3.65
104 | E22A | 3.57
105 | E22C | 4.27
106 | E22L | 3.74
107 | E22Y | 3.28
108 | E22N | 3.67
109 | E22D | 3.29
110 | E22F | 3.56
111 | S20N | 3.69
112 | S20K | 4.26
113 | S20A | 3.68
114 | S20Q | 4.29
115 | S20P | 4.13
116 | S20R | 4.38
117 | S20H | 4.3
118 | S20L | 4.43
119 | S20I | 2.9
120 | S20C | 4.32
121 | S20M | 4
122 | S20T | 4.07
123 | S20Y | 3.24
124 | S20V | 3.75
125 | S20D | 4.3

Row | Variant | protein stability index
126 | S20F | 2.59
127 | S20E | 3.98
128 | S19M | 3.72
129 | S19L | 3.89
130 | S19T | 4.25
131 | S19P | 4.17
132 | S19F | 3.37
133 | S19Y | 3.1
134 | S19I | 3.4
135 | S19E | 4.62
136 | S19K | 3.9
137 | S19N | 4.38
138 | S19W | 3.35
139 | S19D | 3.8
140 | S19C | 3.85
141 | S19R | 3.73
142 | S19G | 3.67
143 | S19Q | 4.51
144 | S19A | 4.41
145 | S19V | 3.86
146 | S19H | 3.45

Variants of: B2
Assay: as above
Conditions: c terminus: a fixed tail appended

Row | Variant | protein stability index
147 | S5K | 2.4
148 | S5Y | 3.17
149 | S5D | 2.43
150 | S5A | 3.09
151 | S5W | 2.62
152 | S5N | 3.74
153 | S5F | 3.77
154 | S5V | 2.69
155 | S5I | 4.16
156 | S5M | 3.67
157 | S5C | 1.36
158 | F1C | 3.5
159 | F1Q | 2.23
160 | F1T | 1.55
161 | F1K | 1.27
162 | F1W | 3.55
163 | F1D | 1.43
164 | F1E | 1.23
165 | F1P | 2.79
166 | F1Y | 2.68
167 | F1A | 1.63
168 | F1G | 2.09
169 | F1L | 1.89
170 | F1R | 1.67

Row | Variant | protein stability index
171 | F1V | 3.25
172 | F1S | 1.18
173 | F1I | 3.26
174 | F1H | 1.79
175 | F1N | 1.61
176 | D7R | 1.11
177 | D7S | 3.9
178 | D7G | 2.38
179 | D7C | 3.48
180 | D7K | 2.52
181 | D7I | 3.19
182 | D7N | 2.8
183 | D7E | 2.83
184 | D7Y | 3.46
185 | D7A | 2.72
186 | A16K | 2.25
187 | A16E | 2.37
188 | A16F | 3.33
189 | A16D | 3.18
190 | I6H | 4
191 | I6Y | 2.46
192 | I6D | 1.4
193 | I6G | 1.26
194 | I6P | 2.43

Row | Variant | protein stability index
195 | I6T | 1.66
196 | I6Q | 2.92
197 | I6E | 1.49
198 | I6M | 3.92
199 | I6A | 2.72
200 | I6S | 1.18
201 | I6N | 3.39
202 | I6F | 4.13
203 | Y14N | 2.27
204 | Y14P | 2.28
205 | Y14R | 3.3
206 | Y14M | 2.4
207 | Y14D | 2.21
208 | Y14S | 2.15
209 | Y14H | 2.1
210 | Y14E | 1.25
211 | Y14Q | 2.03
212 | Y14T | 3.5
213 | Y14A | 1.82
214 | Y14K | 2.48
215 | Y14W | 3.44
216 | L12C | 1.24
217 | L12E | 3.08
218 | L12T | 1.83

Row | Variant | protein stability index
219 | L12Y | 2.45
220 | L12S | 2.44
221 | L12K | 1.98
222 | L12P | 2.88
223 | L12D | 1.67
224 | L12V | 2.56
225 | L12F | 4.33
226 | L12Q | 3.21
227 | K15N | 2.34
228 | K15A | 3.38
229 | K15T | 3.79
230 | K15G | 1.5
231 | K15E | 1.14
232 | K15F | 2.81
233 | K15R | 2.16
234 | K15H | 2.12
235 | K15I | 2.98
236 | K15V | 2.4
237 | K15Q | 3.65
238 | K15D | 2.81
239 | K15Y | 3.8
240 | K15S | 2.31
241 | G10V | 2.6
242 | G10F | 2.96

Row | Variant | protein stability index
243 | G10E | 3.19
244 | G10Q | 3.41
245 | G10D | 2.05
246 | G10H | 1.84
247 | G10P | 2.92
248 | G10N | 2.84
249 | G10A | 2.49
250 | G10L | 1.72
251 | G10I | 2.02
252 | G10W | 1.35
253 | G10K | 2.08
254 | Q2L | 2.78
255 | Q2M | 2.75
256 | Q2N | 3.37
257 | Q2K | 2.89
258 | Q2G | 3.54
259 | Q2R | 4.64
260 | Q2D | 4.24
261 | Q2V | 3.19
262 | Q2P | 3.25
263 | Q2A | 1.56
264 | Q2T | 2.75
265 | Q2E | 4.45
266 | Q2F | 2.36

Row | Variant | protein stability index
267 | Q2C | 3.59
268 | Q2H | 2.06
269 | F3K | 1.43
270 | F3D | 1.34
271 | F3R | 1.75
272 | F3I | 2.29
273 | F3T | 1.22
274 | F3V | 2.75
275 | F3G | 3
276 | F3C | 2.41
277 | F3P | 2.84
278 | F3H | 2.11
279 | F3M | 2.36
280 | F3A | 2.17
281 | F3N | 1.36
282 | F3E | 1.56
283 | F3Q | 2.32
284 | F3Y | 2.59
285 | F3S | 1.93
286 | A4P | 2.19
287 | A4N | 2.56
288 | A4L | 4.51
289 | A4T | 2.81
290 | A4D | 1.9

Row | Variant | protein stability index
291 | A4E | 2.51
292 | A4F | 2.42
293 | A4H | 4.96
294 | A4Q | 3.96
295 | A4S | 2.84
296 | A4V | 1.99
297 | V8G | 3.17
298 | V8H | 3.1
299 | V8P | 2.55
300 | V8R | 2.8
301 | V8W | 2.9
302 | V8S | 2.09
303 | V8D | 4.22
304 | V8M | 2.67
305 | V8N | 2.44
306 | V8K | 2.17
307 | V8E | 2.42
308 | V8C | 2.11
309 | N11W | 2.82
310 | N11S | 3.23
311 | N11D | 1.17
312 | N11P | 3.96
313 | N11C | 3.05
314 | N11Q | 5.1

Row | Variant | protein stability index
315 | N11K | 2.17
316 | N11A | 2.52
317 | N11E | 2.83
318 | N11T | 2.92
319 | A9N | 3.37
320 | A9F | 2.33
321 | A9T | 3.01
322 | A9Q | 1.91
323 | A9H | 2.26
324 | A9Y | 4.67
325 | A9P | 1.7
326 | A9M | 3.38
327 | A9L | 2.77
328 | A9K | 2.71
329 | D13T | 2.23
330 | D13P | 2.51
331 | D13N | 3.69
332 | D13L | 2.49
333 | D13V | 2.86
334 | D13A | 3.41
